Data on 4 molecules can be found in patent publication US10508139B2, “Compound, use, anti-tumor pharmaceutical composition, gene construct for polypeptide expression, process for the production, process for the evaluation of tumor cells, method of sensitization of tumor cells to chemotherapeutic” (União Brasileira de Educaçâo e Assistência, mantendedora da …, priority 2012, dated 2019).

Assay [1] relates to B16F10 cells. The assay can be described thus: Tumor growth of B16F10 cells transiently transfected with murine HspBP1 or HspBP1 (1-136). The assay is classed as in vivo, mice. The settings on record: subcutaneous, monitored for 20 days. On the procedure: Working with the possibility that human HspBP1 protein is recognized by the mouse immune system and that this is the reason for the tumor growth reduction, we decided to repeat the experiments using murine HspBP1. The B16F10 cells were transiently transfected with plasmid containing the sequence encoding the murine HspBP1 or […] as a control, and these cells were injected subcutaneously in the mouse thigh. Tumor growth was monitored for 20 days by measuring the volume of the thigh using a digital caliper.
B16F10 cells (5×10^5) were transiently transfected with pcDNA4/TO plasmid alone or containing the sequence encoding HspBP1 and HspBP1 (1-136) protein and, after 24 h, were injected subcutaneously into mice. A)—Quantification of tumor growth inhibition by HspBP1 after 20 days of tumor growth (Mann-Whitney test, p<0.05). B)—Tumor-bearing mice were photographed after 20 days of tumor growth. C)—Western blot analysis showing in vitro HspBP1 and truncated HspBP1 (1-136) expression on transfected cells.

The test system of assay [2] is B16F10 cells. As to the kind of experiment: Tetracycline-induced human HspBP1 overexpression in B16F10 tumors in mice. Format: in vivo. The source says: As part of the experimental strategy, a gene construct was designed and implemented for the Hsp70 binder expression, said construct being particularly useful for gene therapy for the treatment of mammalian tumors. Said gene construct comprises: • a sequence encoding a Hsp70 binding polypeptide; • a promoter sequence operatively linked to said encoding sequence; • said promoter and coding sequences being present on a vector or functional plasmid for expression of said polypeptide in prokaryotic or eukaryotic cells. In this context, a system was developed in which HspBP1 expression was regulated by the presence of tetracycline. B16F10 cells were stably transfected with pcDNA6/TR plasmid, the transfected clones were selected using antibiotic and then the cells were transfected with a plasmid containing the sequence encoding human HspBP1, or empty vector as a control. The HspBP1 increased expression was verified by adding tetracycline to the culture medium. […]
The B16F10 cells were stably transfected with pcDNA6/TR and pcDNA4/TO plasmids with or without the human HspBP1 sequence. […] Quantification of tumor growth inhibition by HspBP1 (Mann-Whitney test, /d/p<0.05). Tumor volume (V) was calculated using V=d2×D×0.5, where d=smaller diameter and D=larger diameter.

Assay [3] has as its system activated caspase 3. The assay can be described thus: Ex vivo activated caspase 3 Western blot of treated tumors. The assay is classed as in vivo, mice. The settings on record: tumor removed 24 hours after treatment, OVA control. On the procedure:
We performed ex vivo tests to verify that HspBP1 treatment could activate caspase 3 in melanoma. 8×10^5 cells/animals were injected and after 3 days they were treated with HspBP1 FL, HspBP1 (1-136) or OVA. After 24 hours, the tumor was removed and analyzed for activated caspase 3 by Western blot (FIG. 5).
The 17 kDa band represents the marking of activated caspase 3.
Background: In western blotting, separated proteins are transferred to a membrane and probed.

Assay [4] has as its target T1, Hsp70 on the surface of the cells (Mus musculus, UniProt Q61696).
T1 construct: endogenous in cells; host or cells: B16F10 murine melanoma cells
As to the kind of experiment: Binding to B16F10 cells analyzed by flow cytometry. The settings on record: B16F10 cells labeled 2 hours on ice. Details: species or system murine. The source says: Studies have shown that Hsp70 and HspBP1 can be secreted by tumor cells (Evdonin et al., 2009) and it is well established that Hsp70 is present in human serum (Pockley et al., 1998). Our laboratory has shown that breast cancer patients had twice the HspBP1 level in their serum compared to tumor-free individuals. Furthermore, breast tumors contained HspBP1 (and Hsp70) levels that were 4 times higher than the normal adjacent tissue (Souza et al., 2009).
Fc receptors were blocked using […], then the cells were labeled for 2 hours on ice with HspBP1 (FL) or HspBP1 (1-136). Cells were acquired on FACS Canto II cytometer (BD bioscience), and the data were analyzed using the FlowJo software (TreeStar).
In general terms: In flow cytometry, cells or beads pass a laser one at a time.

Assay [5] relates to B16F10 cells. The assay can be described thus: Survival of transfected B16F10 cells after heat shock. The assay is classed as cell-based, murine. Conditions: overexpression in B16F10 cells, heat shock 42° C. for 1 h. On the procedure:
When Hsp70 is silenced in B16F10 cells using siRNA and when we submit the cells to heat shock, there is a reduction in the number of viable cells in vitro (FIG. 3).
B—Western blot analysis of Hsp70 and actin expression in B16F10 cells, after silencing Hsp70 with siRNA. Cells were treated with control siRNA (lane 1) or Hsp70 siRNA (lane 2) and subsequently heat shocked at 42° C. for 2 hours, followed by a recovery of 37° C. for 4 h. C—Survival of B16F10 cells transiently transfected with pcDNA4/TO plasmid containing the murine HspBP1 sequence or pcDNA4/TO plasmid having murine HspBP1 (1-136) sequence; with or without heat shock at 42° C. for 1 h.

In assay [6] the test system is B16F10 cells. As to the kind of experiment: Intratumoral injection of recombinant protein in melanoma-bearing mice. Format: in vivo. Conditions: 40 ug intratumorally on days 3 and 6, monitored for 16 days, BSA control. As to the method:
The recombinant form of the non-natural 1-136 peptide was produced. Then melanoma-bearing mice were treated with whole protein (FL) or only with said peptide. […] 3 and 6 days later, 40 ug HspBP1, BSA or truncated HspBP1 were intratumorally injected in 100 uL PBS. Tumor growth was monitored for 16 days. Tumor sizes were measured using a caliper. Tumor volume (V) (mm3) was calculated using V=d2×D×0.5, wherein d=smaller diameter and D=larger diameter.

For assay [7], the system named is B16F10 cells. The assay can be described thus: Sensitization of B16F10 cells to hydrogen peroxide-induced death (MTT, annexin/propidium iodide). Conditions: HspBP1 for 2 h, then hydrogen peroxide; MTT after 24 h or annexin/propidium iodide after 12 h. Format: cell-based, murine. On the procedure:
Since Hsp70 protects against death induced by oxidative stress—such as, for example, that induced in the treatment with hydrogen peroxide, we hypothesized that HspBP1 will sensitize tumors to death by oxidative stress, thereby enabling a tumor cell sensitization method to chemotherapeutic agents. HspBP1 was added at different concentrations with B16F10 cells cultured for 2h and then hydrogen peroxide was added. After 24 h and 12 h viability was assessed using MTT or by annexin and propidium iodide labeling to assess apoptotic cells. […] Viability was assessed using MTT after 24 hours (A) or by annexin and propidium iodide labeling after 12 h (B).

Assay [8] deals with B16F10 cells. As to the kind of experiment: Chemo-sensitization of B16F10 cells to cisplatin (MTT). Format: cell-based, murine. The settings on record: HspBP1 for 2 h, then cisplatin 160 ug/ml, 14 h. On the procedure: It was also assessed whether HspBP1 may enhance the effect of chemotherapeutic agents already used in clinical practice. The B16F10 cells were plated at a concentration of 4×10^3 cells per well in a 96 well plate in 200 ul 10% DMEM medium. After 24 h, HspBP1 was added at different concentrations in AIM-V medium, and cells were incubated for 2 h; then cisplatin was added at a concentration of 160 ug/ml. After 14 h cell viability was assessed using MTT.
The B16F10 cells were plated at a concentration of 4×10^3 cells per well in a 96 well plate in 200 ul 10% DMEM medium. After 24 h, HspBP1 was added at different concentrations in AIM-V medium, and cells were incubated for 2 h; then cisplatin was added at a concentration of 160 ug/ml. After 14 h, cell viability was assessed using MTT.

For assay [9], the system named is B16F10 cells. The assay can be described thus: Growth of HspBP1-overexpressing B16F10 tumors in WT and RAG-/- mice. Format: in vivo. Conditions: for tumor size vs vector control: 25 days of tumor growth. As to the method:
One possibility is that the host immune system plays a role in in vivo tumor growth inhibition mediated by HspBP1. A comparison between wild WT mice (C57BL6/c) and immunodeficient mice (RAG−/−) was used to further explore the involvement of the immune system in tumor regression mediated by HspBP1 overexpression in B16F10 cells (FIG. 10).
Tumor volume (mm3) was measured after 25 days of tumor growth (Mann-Whitney test, p <0.05).

In assay [10] the test system is draining lymph nodes. The assay can be described thus: Draining lymph node analysis of tumors over-expressing HspBP1 (flow cytometry). Format: in vivo, mice. Conditions: 25 days of tumor growth. As to the method:
Furthermore, activation of dendritic cells and the number of CD4 and CD8 T cells in draining lymph nodes of tumor-bearing mice transiently over-expressing HspBP1 was evaluated. […] A—Number of CD4+ or CD8+ T cells in draining lymph nodes. B—Number of CD11c+CD86+MHCII+ cells. C—Dot plot graph showing the frequency of CD11c+, CD86 +MHC-II+ dendritic cells.

In assay [11] the test system is GL, glioma cell line. The assay can be described thus: Apoptosis in GL glioma cell line (Annexin V/iodide flow cytometry). The assay is classed as cell-based. The settings on record: 10 or 20 ug for 24 hours, albumin control. As to the method: In vitro assays were performed to verify whether HspBP1 could induce cell death in GL, glioma cell line. 5×10^5 cells were seeded per well in a 24 well plate. Then, cells were incubated with 10 or 20 ug HspBP1 or albumin for 24 hours in DMEM containing 1% fetal bovine serum. After 24 hours, the samples were analyzed by flow cytometry using the Annexin V/iodide kit (BD).

For assay [12], the system named is tumor. As to the kind of experiment: Intravenous injections in tumor bearing mice. Conditions: circulating levels increased through intravenous injections. The assay is classed as in vivo. The source says:
The invention therefore additionally provides a new in vivo experimental model for the development of new anti-tumor agents.

In assay [13] the test system is B16F10 cells. As to the kind of experiment: Single HspBP1 treatment of B16F10 cells in culture. The assay is classed as cell-based, murine. Conditions: no added stressor.
Assay [14] concerns the target Hsp70 ATPase activity (Homo sapiens, UniProt P0DMV8). Conditions: according to Raynes et al. (2003); cited from earlier work.

T1 sequence (Q61696 whole entry): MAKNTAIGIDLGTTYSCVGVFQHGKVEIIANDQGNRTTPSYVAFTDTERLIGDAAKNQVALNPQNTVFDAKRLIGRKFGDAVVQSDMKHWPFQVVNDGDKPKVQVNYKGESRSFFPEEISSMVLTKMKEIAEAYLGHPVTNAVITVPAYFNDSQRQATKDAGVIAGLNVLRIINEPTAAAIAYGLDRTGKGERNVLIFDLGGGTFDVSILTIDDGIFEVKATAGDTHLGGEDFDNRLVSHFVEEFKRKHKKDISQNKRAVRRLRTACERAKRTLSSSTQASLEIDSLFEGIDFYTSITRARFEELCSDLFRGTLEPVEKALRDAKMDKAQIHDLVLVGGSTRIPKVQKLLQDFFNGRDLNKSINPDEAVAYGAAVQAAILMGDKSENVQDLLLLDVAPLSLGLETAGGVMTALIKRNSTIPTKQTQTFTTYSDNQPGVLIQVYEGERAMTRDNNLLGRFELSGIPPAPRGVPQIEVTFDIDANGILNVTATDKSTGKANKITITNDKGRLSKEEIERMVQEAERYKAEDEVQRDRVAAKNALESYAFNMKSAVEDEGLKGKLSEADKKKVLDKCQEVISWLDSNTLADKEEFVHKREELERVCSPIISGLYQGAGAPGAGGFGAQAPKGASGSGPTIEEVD
Sequence of Hsp70 ATPase activity (P0DMV8 whole entry): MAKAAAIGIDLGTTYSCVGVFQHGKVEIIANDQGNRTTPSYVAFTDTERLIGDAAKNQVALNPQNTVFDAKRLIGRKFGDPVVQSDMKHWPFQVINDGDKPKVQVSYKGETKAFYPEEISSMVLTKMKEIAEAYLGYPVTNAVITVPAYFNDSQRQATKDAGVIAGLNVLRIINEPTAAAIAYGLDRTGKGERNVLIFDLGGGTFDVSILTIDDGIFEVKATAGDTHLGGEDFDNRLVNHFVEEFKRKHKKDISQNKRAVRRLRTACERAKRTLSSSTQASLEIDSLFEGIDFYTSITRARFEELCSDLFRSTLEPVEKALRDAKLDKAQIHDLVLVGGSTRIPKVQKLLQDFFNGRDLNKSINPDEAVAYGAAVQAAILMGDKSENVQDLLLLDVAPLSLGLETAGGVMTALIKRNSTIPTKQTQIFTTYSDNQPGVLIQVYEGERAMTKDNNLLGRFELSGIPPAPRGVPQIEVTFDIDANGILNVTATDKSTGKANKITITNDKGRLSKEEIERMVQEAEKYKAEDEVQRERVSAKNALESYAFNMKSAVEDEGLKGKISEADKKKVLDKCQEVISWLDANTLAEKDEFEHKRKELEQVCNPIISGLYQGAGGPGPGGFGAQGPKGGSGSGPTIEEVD

As for “murine HspBP1: murine HspBP1 expressed in B16F10 cells from pcDNA4/TO plasmid; 94% identical to human form”, the tumor growth result in assay [1] was “inhibits tumor growth”.

B1: human HspBP1: human HspBP1 expressed in B16F10 cells from a tetracycline-regulated plasmid (protein, UniProt Q9NZL4 1-359, looked up)
Hsp70-binding protein 1: MSDEGSRGSRLPLALPPASQGCSSGGGGGGSSAGGSGNSRPPRNLQGLLQMAITAGSEEPDPPPEPMSEERRQWLQEAMSAAFRGQREEVEQMKSCLRVLSQPMPPTAGEAEQAADQQEREGALELLADLCENMDNAADFCQLSGMHLLVGRYLEAGAAGLRWRAAQLIGTCSQNVAAIQEQVLGLGALRKLLRLLDRDACDTVRVKALFAISCLVREQEAGLLQFLRLDGFSVLMRAMQQQVQKLKVKSAFLLQNLLVGHPEHKGTLCSMGMVQQLVALVRTEHSPFHEHVLGALCSLVTDFPQGVRECREPELGLEELLRHRCQLLQQHEEYQEELEFCEKLLQTCFSSPADDSMDR
B1 had an average tumor volume in [2] (B16F10 stably transfected, injected subcutaneously into thigh of mice, tetracycline in drinking water, control tumors 46.9 mm^3) of 2.07 mm^3. In assay [2] (induced human HspBP1 overexpression vs mice without tetracycline), the tumor growth entry is “clearly reduced”.

B2: truncated HspBP1: non-natural peptide corresponding to amino acids 1-136 of HspBP1 (protein)
chain: MADKGSGGSRLPLALPPASQGCSSGGSGSSAGGSGNPRPPRNLQGLLQMAITAGSQEPDPPPEPMSEERRQWLQEAMSAAFRGQREEVEQMKNCLRVLSQATPAMAGEAELATDQQEREGALELLADLCENMDNAA
On to B2, for which the tumor growth entry in assay [1] is given as “also inhibits tumor growth”. For the same molecule, in [3], the “apoptosis in vivo (activated caspase 3)” value is “inhibits tumor growth by inducing apoptosis in vivo”. For the same molecule, the “binding to the extracellular surface of tumor cells” value in [4] is on record as “can bind to the extracellular surface of tumor cells”. The “cell survival after heat shock” value in [5] is “no changes occur in vitro”.

B3: HspBP1: Hsp70 binding co-chaperone protein, SEQ ID No: 1; species of the protein not always stated (protein, listed as Mus musculus)
chain: MADKGSGGSRLPLALPPASQGCSSGGSGSSAGGSGNPRPPRNLQGLLQMAITAGSQEPDPPPEPMSEERRQWLQEAMSAAFRGQREEVEQMKNCLRVLSQATPAMAGEAELATDQQEREGALELLADLCENMDNAA
As to B3, the tumor growth entry in [6] was “Reduces Tumor Growth”; in [12] it was “tumor growth was reduced”. Moreover, the “binding to the extracellular surface of tumor cells” value in assay [4] was “can bind to the extracellular surface of tumor cells”. For the same molecule, the “cell survival after heat shock” value in assay [5] is “no changes occur in vitro”. Also, the “death induced by oxidative stress” value in assay [7] is listed as “enhances death induced by oxidative stress”. Moreover, the “effect on cisplatin-induced death (cell viability, MTT)” value in assay [8] is listed as “enhances the effect of cisplatin death”. In addition, the “tumor size vs vector control” value is on record as “tendency to be smaller than tumors transfected with vector alone, although the difference was not significant” in [9] (RAG -/- mice) and “significantly smaller than tumors transfected only with the vector as a control” in [9] (WT mice (C57BL6/c)). In addition, the “tumor size, WT vs RAG -/- mice” value in [9] (tumors expressing HspBP1) is listed as “significantly smaller in WT than in RAG −/− mice”. Besides, in assay [10] (CD4 and CD8 T cells), the “T cell frequency in the draining lymph nodes” value was “no difference in T cell frequency”. Besides, in assay [10] (CD11c+CD86+MHCII+ cells), the “activation of dendritic cells in the lymph node” value is given as “trend in the activation of dendritic cells”. In addition, the “frequency of apoptotic cells” value in [11] was “increase in the frequency of apoptotic cells”. The “anti-tumor effect in culture” value in [13] is given as “lack of an anti-tumor effect”. Further, the “HspBP1/Hsp70 molar ratio resulting in 50% inhibition of Hsp70 ATPase activity” value in assay [14] is listed as 4.0.
